Data reported in patent publication US11542537B2, “High-purity steviol glycosides” (PureCircle Sdn Bhd, priority 2012, dated 2023).

Columns and labels:
Type in all cases: biochemical
[1] = Catalytic test of in-vitro expressed UDP-glucosyltransferases, Rebaudioside A to Rebaudioside D (HPLC CAD); conditions: 0.5 mM Rebaudioside A, 30° C., T24h sample; for Steviol glycoside conversion in reaction mixture: Reb A: remaining substrate; for Steviol glycoside conversion in reaction mixture: Reb UNK: Reb UNK later identified as reb D2
Experimental: 18 μL of plasmid solution (containing approximately 1.5 μg of plasmid) was used for in-vitro expression according to the Promega S30 T7 High-Yield Protein Expression System (ref: L1110) kit. The expression medium was produced as follows:
The prepared expression medium mix was added to the plasmid solution and the solution was allowed to incubate at 30° C. for 3 hours while mixing the mixture every 45 minutes. 5 μL of the mixture was frozen whereas the remainder was used for the catalytic test for the conversion of Rebaudioside A to Rebaudioside D.
430 μL of a reaction mixture containing 0.5 mM Rebaudioside A, 3 mM MgCl2, 50 mM phosphate buffer (pH7.2) and 2.5 mM UDP-glucose was added to a 1.5 mL sterile microtube. 52 μL of the enzyme expression medium was added and the resulting mixture was allowed to react at 30° C. for 24 hours. 125 μL samples were taken after 2 hours, 16 hours and 24 hours and added to a 115 μL of 60% methanol and 10 μL of 2 N H2SO4. The quenched sample was centrifuged at 18,000 g for 2 minutes at RT. 200 μL was transferred to an HPLC vial and analyzed.
The HPLC assay was performed as follows:
430 μL of a reaction mixture containing 0.5 mM Rebaudioside A, 3 mM MgCl2, 50 mM phosphate buffer (pH7.2) and 2.5 mM UDP-glucose was added to a 1.5 mL sterile microtube. 52 μL of the enzyme expression medium was added and the resulting mixture was allowed to react at 30° C. for 24 hours. 125 μL samples were taken after 2 hours, 16 hours and 24 hours and added to a 115 μL of 60% methanol and 10 μL of 2 N H2SO4. The quenched sample was centrifuged at 18,000 g for 2 minutes at RT.
The HPLC assay was performed as described in EXAMPLE 20.

[2] = LCMS of Stevioside conversion products with UGTSL, UGTSL2, UGTLB; conditions: UGTSL2 2 hrs, UGTLB 2 hrs, UGTSL 22 hrs
Experimental: (§1) Conversion of stevioside with UGTSL and UGTSL2 was conducted in similar manner to Example 28, and the conversion of rubusoside with UGTSL and UGTSL2 was conducted similarly to Example 29. Conversions of rubusoside and stevioside with UGTLB was conducted similarly to Example 32.
(§2) The reaction mixtures were analyzed by LCMS to determine all reaction products.

[3] = LCMS of Rubusoside conversion products with UGTSL, UGTSL2, UGTLB; conditions: UGTSL2 2 hrs, UGTLB 5 hrs, UGTSL 45 hrs
Experimental: as §1, §2

Row | Molecule | Steviol glycoside conversion in reaction mixture: Reb D [1] [% area] | Steviol glycoside conversion in reaction mixture: Reb A [1] [% area] | Steviol glycoside conversion in reaction mixture: Reb UNK [1] [% area] | also measured
1 | S115N01 G2: UDP-glycosyltransferase, Avena strigosa, SEQ ID 4 (protein, listed as Avena strigosa) MAVKDEQQSPLHILLFPFLAPGHLIPIADMAALFASRGVRCTILTTPVNAAIIRSAVDRANDAFRGSDCPAIDISVVPFPDVGLPPGVENGNALTSPADRLKFFQAVAELREPFDRFLADNHPDAVVSDSFFHWSTDAAAEHGVPRLGFLGSSMFAGSCNESTLHNNPLETAADDPDALVSLPGLPHRVELRRSQMMDPKKRPDHWALLESVNAADQKSFGEVFNSFHELEPDYVEHYQTTLGRRTWLVGPVALASKDMAGRGSTSARSPDADSCLRWLDTKQPGSVVYVSFGTLIRFSPAELHELARGLDLSGKNFVWVLGRAGPDSSEWMPQGFADLITPRGDRGFIIRGWAPQMLILNHRALGGFVTHCGWNSTLESVSAGVPMVTWPRFADQFQNEKLIVEVLKVGVSIGAKDYGSGIENHDVIRGEVIAESIGKLMGSSEESDAIQRKAKDLGAEARSAVENGGSSYNDVGRLMDELMARRSSVKVGEDIIPTNDGL | 0.6 | 99.4 | – | –
2 | S115N06 C2: UDP-glucoronosyl/UDP-glucosyl transferase family protein, Arabidopsis lyrata subsp. lyrata, SEQ ID 7 (protein, listed as Arabidopsis lyrata) MDDKKEEVMHIAMFPWLAMGHLLPFLRLSKLLAQKGHKISFISTPRNILRLPKLPSNLSSSITFVSFPLPSISGLPPSSESSMDVPYNKQQSLKAAFDLLQPPLTEFLRLSSPDWIIYDYASHWLPSIAKELGISKAFFSLFNAATLCFMGPSSSLIEESRSTPEDFTVVPPWVPFKSTIVFRYHEVSRYVEKTDEDVTGVSDSVRFGYTIDGSDAVFVRSCPEFEPEWFSLLQDLYRKPVFPIGFLPPVIEDDDDDTTWVRIKEWLDKQRVNSVVYVSLGTEASLRREELTELALGLEKSETPFFWVLRNEPQIPDGFEERVKGRGMVHVGWVPQVKILSHESVGGFLTHCGWNSVVEGIGFGKVPIFLPVLNEQGLNTRLLQGKGLGVEVLRDERDGSFGSDSVADSVRLVMIDDAGEEIREKVKLMKGLFGNMDENIRYVDELVGFMRNDESSQLKEEEEEDDCSDDQSSEVSSETDEKELNLDLKEEKRRISVYKSLSSEFDDYVANEKMG | 0.28 | 95.8 | 3.9 | –
3 | UGTLB: Lycium barbarum UDP-glucosyltransferase GI_209954733, SEQ ID 10, E. coli lysate (protein, listed as Escherichia coli) MGTEVTVHKNTLRVLMFPWLAYGHISPFLNVAKKLVDRGFLIYLCSTAINLKSTIKKIPEKYSDSIQLIELHLPELPELPPHYHTTNGLPPHLNHTLQKALKMSKPNFSKILQNLKPDLVIYDLLQQWAEGVANEQNIPAVKLLTSGAAVLSYFFNLVKKPGVEFPFPAIYLRKNELEKMSELLAQSAKDKEPDGVDPFADGNMQVMLMSTSRIIEAKYIDYFSGLSNWKVVPVGPPVQDPIADDADEMELIDWLGKKDENSTVFVSFGSEYFLSKEDREEIAFGLELSNVNFIWVARFPKGEEQNLEDALPKGFLERIGDRGRVLDKFAPQPRILNHPSTGGFISHCGWNSVMESVDFGVPIIAMPIHLDQPMNARLIVELGVAVEIVRDDYGKIHREEIAEILKDVIAGKSGENLKAKMRDISKNLKSIRDEEMDTAAEELIQLCKNSPKLK | – | – | – | LC-MS, peak area ratio (%) Reb E [2]: 3.12%; LC-MS, peak area ratio (%) Stev [2]: 43.11%; LC-MS, peak area ratio (%) Unknown peak #2 (MW966) RT = 26.50 min [2]: 53.78%; LC-MS, peak area ratio (%) Reb D [3]: 1.29%; LC-MS, peak area ratio (%) Reb E [3]: 9.21%; LC-MS, peak area ratio (%) Rub [3]: 13.49%; LC-MS, peak area ratio (%) Unknown peak #1 (MW804) RT 30.70 min [3]: 4.07%; LC-MS, peak area ratio (%) Unknown peak #2 (MW804) RT 49.50 min [3]: 66.67%; LC-MS, peak area ratio (%) Unknown peak #3 (MW804) RT 50.40 min [3]: 5.27%
4 | S115N06 E1: hypothetical protein OsJ_04191, Oryza sativa Japonica Group, SEQ ID 6 (protein, listed as Oryza sativa) MHVVMLPWLAFGHILPFAEFAKRVARQGHRVTLFSTPRNTRRLIDVPPSLAGRIRVVDIPLPRVEHLPEHAEATIDLPSNDLRPYLRRAYDEAFSRELSRLLQETGPSRPDWVLADYAAYWAPAAASRHGVPCAFLSLFGAAALCFFGPAETLQGRGPYAKTEPAHLTAVPEYVPFPTTVAFRGNEARELFKPSLIPDESGVSESYRFSQSIEGCQLVAVRSNQEFEPEWLELLGELYQKPVIPIGMFPPPPPQDVAGHEETLRWLDRQEPNSVVYAAFGSEVKLTAEQLQRIALGLEASELPFIWAFRAPPDAGDGDGLPGGFKERVNGRGVVCRGWVPQVKFLAHASVGGFLTHAGWNSIAEGLANGVRLVLLPLMFEQGLNARQLAEKKVAVEVARDEDDGSFAANDIVDALRRVMVGEEGDEFGVKVKELAKVFGDDEVNDRYVRDFLKCLSEYKMQRQG | 0.14 | 92.8 | 7.0 | –
5 | S115N01 A1: UDP-glucosyltransferase Os03g0702500, Oryza sativa Japonica Group, SEQ ID 3 (protein, listed as Oryza sativa) MDDAHSSQSPLHVVIFPWLAFGHLLPCLDLAERLAARGHRVSFVSTPRNLARLPPVRPELAELVDLVALPLPRVDGLPDGAEATSDVPFDKFELHRKAFDGLAAPFSAFLDTACAGGKRPDWVLADLMHHWVALASQERGVPCAMILPCSAAVVASSAPPTESSADQREAIVRSMGTAAPSFEAKRATEEFATEGASGVSIMTRYSLTLQRSKLVAMRSCPELEPGAFTILTRFYGKPVVPFGLLPPRPDGARGVSKNGKHDAIMQWLDAQPAKSVVYVALGSEAPMSADLLRELAHGLDLAGTRFLWAMRKPAGVDADSVLPAGFLGRTGERGLVTTRWAPQVSILAHAAVCAFLTHCGWGSVVEGLQFGHPLIMLPILGDQGPNARILEGRKLGVAVPRNDEDGSFDRGGVAGAVRAVVVEEEGKTFFANARKLQEIVADREREERCIDEFVQHLTSWNELKNNSDGQYP | 2.1 | 96.7 | – | –
